US20240116985A1 (published 2024)
Starred links: 1 amine or outer side, 2 acyl side, 3 side chain; linkers in the order of their positions; H or OH if unused. Positions of bridges follow the written chain, without caps; N, C: chain ends. Non-standard residues stand in square brackets, D forms with d. Primed or numbered codes have the meaning given here. B5(16) = 2-amino-2-(pent-4-en-1-yl)hept-6-enoic acid = 2,2-bis(4-pentenyl)glycine (stitching residue), C=CCCCC(CCCC=C)(N[*:1])C(=O)[*:2]; B5(4) = 2,2-bis(4-pentenyl)glycine = 2-amino-2-(pent-4-en-1-yl)hept-6-enoic acid (stitching residue), C=CCCCC(CCCC=C)(N[*:1])C(=O)[*:2]; Bta = N[C@@H](Cc1csc2ccccc12)C(=O)O; αAllylPro = C=CC[C@@]1(C(=O)O)CCCN1; S8 = C=CCCCCCC[C@](C)(N)C(=O)O

Assays:
B-cat-Halo = target: T1, B-cat-Halo (UniProt P35222 1-781); assay: cell-based or functional assay
T1 sequence (looked up): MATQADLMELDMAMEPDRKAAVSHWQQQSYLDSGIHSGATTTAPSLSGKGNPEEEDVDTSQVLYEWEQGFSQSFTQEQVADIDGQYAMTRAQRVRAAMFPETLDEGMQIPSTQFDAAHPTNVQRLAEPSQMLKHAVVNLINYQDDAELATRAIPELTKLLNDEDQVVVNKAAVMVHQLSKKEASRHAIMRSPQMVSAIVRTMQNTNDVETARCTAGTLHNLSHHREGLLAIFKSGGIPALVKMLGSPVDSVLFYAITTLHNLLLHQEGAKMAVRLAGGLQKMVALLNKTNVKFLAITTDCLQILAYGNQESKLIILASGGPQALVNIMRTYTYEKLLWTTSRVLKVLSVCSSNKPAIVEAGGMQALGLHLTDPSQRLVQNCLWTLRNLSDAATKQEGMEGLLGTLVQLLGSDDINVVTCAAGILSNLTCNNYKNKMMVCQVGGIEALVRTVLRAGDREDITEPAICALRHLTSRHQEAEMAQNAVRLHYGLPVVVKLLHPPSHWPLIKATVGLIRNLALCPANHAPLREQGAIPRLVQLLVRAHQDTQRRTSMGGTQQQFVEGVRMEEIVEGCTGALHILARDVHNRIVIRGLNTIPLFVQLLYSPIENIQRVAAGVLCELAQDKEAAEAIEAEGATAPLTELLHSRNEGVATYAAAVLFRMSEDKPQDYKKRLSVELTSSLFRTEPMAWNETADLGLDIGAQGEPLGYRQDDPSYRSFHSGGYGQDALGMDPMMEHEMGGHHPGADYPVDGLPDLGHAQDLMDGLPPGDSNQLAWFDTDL

[1] = target: T2, full-length beta-Catenin (Uniprot ID P35222) (Homo sapiens (Human), UniProt P35222 1-781); assay: fluorescence polarization competition; displacement of 5FAM-TCF4(10-53) from full-length beta-catenin
T2 construct: also called bCat; B-Catenin
T2 sequence: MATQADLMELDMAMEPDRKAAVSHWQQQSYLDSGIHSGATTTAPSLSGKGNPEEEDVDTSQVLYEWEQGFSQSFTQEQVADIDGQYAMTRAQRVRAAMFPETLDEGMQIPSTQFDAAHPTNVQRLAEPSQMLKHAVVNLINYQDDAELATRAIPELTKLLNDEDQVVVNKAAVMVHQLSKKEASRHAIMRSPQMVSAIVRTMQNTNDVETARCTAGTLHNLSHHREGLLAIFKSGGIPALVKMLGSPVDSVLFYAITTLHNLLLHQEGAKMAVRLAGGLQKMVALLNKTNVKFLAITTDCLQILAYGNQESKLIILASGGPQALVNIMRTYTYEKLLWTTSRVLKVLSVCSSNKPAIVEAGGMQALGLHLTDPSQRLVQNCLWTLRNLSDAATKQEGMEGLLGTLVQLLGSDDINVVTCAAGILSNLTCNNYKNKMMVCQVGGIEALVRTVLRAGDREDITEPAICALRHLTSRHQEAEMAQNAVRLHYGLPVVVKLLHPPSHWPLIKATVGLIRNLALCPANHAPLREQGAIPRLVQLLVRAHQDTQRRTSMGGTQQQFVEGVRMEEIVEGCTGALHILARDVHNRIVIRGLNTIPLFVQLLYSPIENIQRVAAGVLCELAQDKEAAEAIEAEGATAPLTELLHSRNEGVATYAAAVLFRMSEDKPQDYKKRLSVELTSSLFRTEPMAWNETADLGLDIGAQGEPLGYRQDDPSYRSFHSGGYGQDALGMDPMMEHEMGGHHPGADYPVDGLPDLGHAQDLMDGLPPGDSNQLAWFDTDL
Procedure, shortened: (§1)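 Readings followed a light-protected 60-minute incubation at 20° C. Each read was done in duplicate. Curves were fit with a 1:1 binding model including hill slope, and stated concentrations are final.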

Bcat-Halo [2] = target: T3, Bcat-Halo (UniProt P35222 1-781); assay: NanoBRET in HEK293 cells, Bcat-Halo/TCF4-Luc (competitor TCF4-Luc); absolute IC50
T3 construct: Construct transfected into HEK293 cells for NanoBRET; not shown: HaloTag fusion partner
T3 sequence (looked up): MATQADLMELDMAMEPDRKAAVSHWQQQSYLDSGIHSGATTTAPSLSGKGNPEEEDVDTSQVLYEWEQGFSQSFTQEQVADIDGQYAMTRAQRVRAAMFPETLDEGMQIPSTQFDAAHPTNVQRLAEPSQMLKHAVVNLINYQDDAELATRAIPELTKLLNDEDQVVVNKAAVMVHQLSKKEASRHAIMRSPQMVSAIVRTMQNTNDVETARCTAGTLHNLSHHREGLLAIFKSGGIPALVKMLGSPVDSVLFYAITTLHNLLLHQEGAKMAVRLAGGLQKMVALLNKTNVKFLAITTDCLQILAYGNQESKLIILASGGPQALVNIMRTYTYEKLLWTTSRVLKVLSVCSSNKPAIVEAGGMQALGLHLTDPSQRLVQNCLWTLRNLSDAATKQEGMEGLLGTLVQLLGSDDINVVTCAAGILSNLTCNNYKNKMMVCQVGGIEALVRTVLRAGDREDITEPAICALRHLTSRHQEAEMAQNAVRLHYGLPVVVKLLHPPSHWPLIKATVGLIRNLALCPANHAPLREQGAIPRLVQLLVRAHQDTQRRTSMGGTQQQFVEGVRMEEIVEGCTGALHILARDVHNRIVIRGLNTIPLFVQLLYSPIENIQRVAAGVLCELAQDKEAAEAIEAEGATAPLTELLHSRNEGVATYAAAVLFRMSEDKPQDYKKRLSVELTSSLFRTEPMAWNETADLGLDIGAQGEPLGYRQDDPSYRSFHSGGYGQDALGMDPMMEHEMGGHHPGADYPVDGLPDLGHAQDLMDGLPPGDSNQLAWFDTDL

[3] = target: T4, full-length beta-Catenin (Uniprot ID P35222) (Homo sapiens (Human), UniProt P35222 2-781); assay: fluorescence polarization competition; full-length beta-catenin, competitor 5FAM-TCF4(10-53) probe
T4 construct: Also used here for the endogenous beta-catenin of the DLD1 TCF reporter cells; also called bCat; B-Catenin
T4 sequence: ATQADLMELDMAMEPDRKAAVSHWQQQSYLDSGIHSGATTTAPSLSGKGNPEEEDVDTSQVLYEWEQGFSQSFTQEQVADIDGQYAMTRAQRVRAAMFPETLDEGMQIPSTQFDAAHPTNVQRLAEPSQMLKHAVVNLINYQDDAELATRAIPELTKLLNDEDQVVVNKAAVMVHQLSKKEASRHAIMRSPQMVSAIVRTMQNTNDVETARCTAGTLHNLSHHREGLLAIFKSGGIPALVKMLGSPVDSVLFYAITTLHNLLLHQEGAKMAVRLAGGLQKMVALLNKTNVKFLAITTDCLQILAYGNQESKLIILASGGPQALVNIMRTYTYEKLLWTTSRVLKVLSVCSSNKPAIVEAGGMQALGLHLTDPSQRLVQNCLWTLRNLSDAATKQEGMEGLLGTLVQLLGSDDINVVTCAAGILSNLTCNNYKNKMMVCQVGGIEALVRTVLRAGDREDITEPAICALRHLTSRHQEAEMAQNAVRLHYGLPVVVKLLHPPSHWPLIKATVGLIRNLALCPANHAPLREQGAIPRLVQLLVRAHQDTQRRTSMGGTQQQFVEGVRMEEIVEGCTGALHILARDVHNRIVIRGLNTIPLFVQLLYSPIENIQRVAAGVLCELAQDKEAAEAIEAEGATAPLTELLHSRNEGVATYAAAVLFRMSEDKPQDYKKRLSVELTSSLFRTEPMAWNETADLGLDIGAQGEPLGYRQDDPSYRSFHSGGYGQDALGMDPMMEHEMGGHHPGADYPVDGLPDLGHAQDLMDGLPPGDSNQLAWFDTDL
Procedure, shortened: as §1

Bcat-Halo [4] = target: T5, Bcat-Halo (UniProt P35222 1-781); assay: NanoBRET Abs IC50 in HEK293 cells; Bcat-Halo, competitor TCF4-Luc
T5 construct: also called beta-catenin HaloTag fusion; not shown: HaloTag
T5 sequence (looked up): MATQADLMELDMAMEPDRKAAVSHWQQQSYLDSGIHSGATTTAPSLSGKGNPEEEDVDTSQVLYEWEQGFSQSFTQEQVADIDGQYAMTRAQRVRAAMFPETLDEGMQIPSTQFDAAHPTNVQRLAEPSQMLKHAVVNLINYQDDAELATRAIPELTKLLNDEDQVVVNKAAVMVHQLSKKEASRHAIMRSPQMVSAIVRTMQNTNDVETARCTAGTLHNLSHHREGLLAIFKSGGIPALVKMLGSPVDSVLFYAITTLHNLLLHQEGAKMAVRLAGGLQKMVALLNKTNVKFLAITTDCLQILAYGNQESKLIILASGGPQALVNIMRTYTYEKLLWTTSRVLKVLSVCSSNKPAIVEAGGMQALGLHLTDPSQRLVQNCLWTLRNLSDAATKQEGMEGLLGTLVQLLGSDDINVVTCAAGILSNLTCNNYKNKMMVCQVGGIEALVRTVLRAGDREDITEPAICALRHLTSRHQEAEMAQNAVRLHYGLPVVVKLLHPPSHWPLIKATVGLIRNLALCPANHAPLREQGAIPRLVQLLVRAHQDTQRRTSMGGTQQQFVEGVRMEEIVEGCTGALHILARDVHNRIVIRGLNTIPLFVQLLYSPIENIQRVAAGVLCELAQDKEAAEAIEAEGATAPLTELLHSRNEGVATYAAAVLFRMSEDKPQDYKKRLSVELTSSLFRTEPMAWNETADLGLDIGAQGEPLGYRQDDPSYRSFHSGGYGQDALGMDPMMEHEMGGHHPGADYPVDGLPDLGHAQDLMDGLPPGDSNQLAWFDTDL

[5] = target: T6, full-length beta-Catenin (Uniprot ID P35222) (Homo sapiens (Human), UniProt P35222 1-781); assay: fluorescence polarization competition; full-length beta-catenin, competitor 5FAM-TCF4(10-53) probe
T6 construct: also called bCat; B-Catenin
T6 sequence: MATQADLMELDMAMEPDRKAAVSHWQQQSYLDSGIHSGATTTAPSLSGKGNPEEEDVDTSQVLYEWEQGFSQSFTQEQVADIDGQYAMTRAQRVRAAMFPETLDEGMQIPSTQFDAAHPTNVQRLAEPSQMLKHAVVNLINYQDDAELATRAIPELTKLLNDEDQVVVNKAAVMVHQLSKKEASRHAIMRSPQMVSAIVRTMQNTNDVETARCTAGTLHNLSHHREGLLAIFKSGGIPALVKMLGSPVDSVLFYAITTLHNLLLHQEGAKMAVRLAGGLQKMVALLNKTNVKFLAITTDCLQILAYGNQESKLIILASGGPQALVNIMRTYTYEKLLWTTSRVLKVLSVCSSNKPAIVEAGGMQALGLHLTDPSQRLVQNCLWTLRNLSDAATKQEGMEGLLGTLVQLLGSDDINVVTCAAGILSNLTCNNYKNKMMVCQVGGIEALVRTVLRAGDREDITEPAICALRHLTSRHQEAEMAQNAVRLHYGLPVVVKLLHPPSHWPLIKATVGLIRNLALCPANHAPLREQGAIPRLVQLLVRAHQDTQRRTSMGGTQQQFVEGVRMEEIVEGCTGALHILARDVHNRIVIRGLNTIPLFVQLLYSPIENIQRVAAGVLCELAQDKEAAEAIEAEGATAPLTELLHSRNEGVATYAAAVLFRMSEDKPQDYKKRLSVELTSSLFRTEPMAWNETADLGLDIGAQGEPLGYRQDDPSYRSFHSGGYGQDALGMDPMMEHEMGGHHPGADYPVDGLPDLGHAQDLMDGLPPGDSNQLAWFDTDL
Procedure, shortened: as §1

B1: I-567 (peptide)
peptide: XDVXDDAAFNXFXQ
modifications: not fully specified; Ac-PL3-Asp-Val-B5-Asp-Asp-Ala-Ala-Phe-Asn-S8-Phe-BztA-Gln-NH2; N-terminal acetyl, C-terminal amide; non-natural: PL3(1), B5(4), S8(11), BztA(13); staples PL3(1)-B5(4) and B5(4)-S8(11)
For B1, the “NanoBRET % inh @ 10 uM” value (B-cat-Halo) was 8.9% and the EC50 [1] was 0.037 µM.

Ac-[αAllylPro]DL[B5(4)]DEAAFN[S8]F[Bta]N-NH2 (staple 1-4, 4-11; also: olefin E/Z not assigned, later-eluting staple isomer, Stapled peptide composition) [I-753] gave an IC50 (Bcat-Halo [2]) of 10 µM and an EC50 [3] of 0.014 µM.

For Ac-[αAllylPro]DI[B5(16)]DEQAFQ[S8]F[Bta]Q-NH2 (staple 1-4, 4-11, Stapled peptide) [I-654], the IC50 (Bcat-Halo [4]) was 15 µM.

B2: I-662 (peptide)
peptide: XDIXDEASFQXFXQ
modifications: not fully specified; Ac-PL3-Asp-Ile-B5-Asp-Glu-Ala-Ser-Phe-Gln-S8-Phe-BztA-Gln-NH2; N-terminal acetyl, C-terminal amide; PL3(1), B5(4), S8(11) stapled by olefin metathesis (1-4 and 4-11); BztA at 13
notes: Stapled peptide
B2 gave an IC50 [5] of 0.026 µM and an IC50 (Bcat-Halo [4]) of 16.1 µM.
